B1: C095 (antibody, V domains shown)
VH: VQLVEAGGGVVQPGRSLRLSCAASGLAFSIYGMHWVRQAPGKGLEWVAIVAQDGSKKYYADSVKGRFTISRDNSKNTLYLEMNSLRTEDTAVYYCVKEGRPSDTVVVVAFDYWGQGSLVTVSS
VL: DIQLTQSPSSLSASVGDRVTITCRASQSISNYLNWYQQKPGKAPKVIIYAASSLQSGVPSRFSGSGSGTDFTLTISSLQPEDFATYYCQQSHSIPRTFGQGTKVEIK
B2: C049 (antibody, V domains shown)
VH: QVQLQESGPGLVKPSETLSLTCTVSGGSVSSGTFYWSWIRQPPGKGLEWIGYIHYSGSTNYNPSLKSRVTISVDTSKNQFSLRLSSVTAADTAVYYCARESFYYDRSGYYGSDAFDIWGQGTMVTVSS
VL: DIQMTQSPSTLSSSVGDRVTITCRASQNISRWLAWYQQKPGKAPKLLIYKASTLESGVPSRFSGSGSGTKFTLTISSLQPDDFATYYCQQYNSYLYTFGQGTKLEIK
B3: C098 (antibody, V domains shown)
VH: EVQLVESGGGLIQPGGSLRLSCAASGFTVSSNYMSWVRQAPGKGLEWVSVIYSGGSTYYADSVKGRFTISRDNSKNTLYLQMNSLRAEDTAVYYCARDLYSSGGTDIWGQGTMVTVSS
VL: not shown
B4: C099 (antibody, V domains shown)
VH: EVQLVESGGGLIQPGGSLRLSCAASGITVSSNYMSWVRQAPGKGLEWVSVMYAGGSTFYADSVKGRFTISRDDSKNTLFLQMNSLRAEDTAIYYCARDLYSSGGTDIWGQGTMVTVSS
VL: EIVLTQSPGTLSLSPGERATLSCRASQSIGSSYLAWYQQKPGLAPRLLIYGASRRATGIPDKFSGSGSGADFTLTISRLEPEDFAVYYCQQYGSSPGTFGQGTKVEIK
B5: C706 (antibody, V domains shown)
VH: EVQLVESGGGLVKPGGSLRLSCAASGFTFSNVWMSWVRQAPGKGLEWVGRIKSKIDGGTTEYAAPVKGRFIISRDDSKNTLSLQMNSLKTEDTAVYYCTTDHGREPPVHWGQGTLVTVSS
VL: EIVLTQSPGTLSLSPGERASLSCRARQSVYSNYLAWYQHKSGQAPRLLFYGASSRATDIPDRFSASGSGTDFTLTISRLEPEDFAVYYCLQYGPSPTFGPGTRLEIK
B6: C704 (antibody, V domains shown)
VH: VQLVESGGGVVQPGRSLRLSCAASGFTFSRYGMHWVRQAPGKGLEWVAVSSYDGSNEYYANSVKGRFTISRDNSKNTLYLQMNSLRAEDTAVYYCAKTGASYCGGDCPFHFDYWGQGTLVTVSS
VL: IRMTQSPSSLSASVGDRVTITCQASQDINNYLNWYQQKPGKAPKLLIYDASDLETGVPSRFSGGGSGTDFTFTISSLQPEDIATYYCQHYNNLPITFGQGTRLEIK
B7: C048 (antibody, V domains shown)
VH: VQLQESGPGLVKPSETLSLTCAVSGGSVSSGNYYWNWIRQPPGKGLEWIGYIYYSGSTNYNPSLKSRVTISVDTSKNQFSLKLNSVTAADTAVYHCARETYYYDSSGYYISDAFDIWGQGTMVTVSS
VL: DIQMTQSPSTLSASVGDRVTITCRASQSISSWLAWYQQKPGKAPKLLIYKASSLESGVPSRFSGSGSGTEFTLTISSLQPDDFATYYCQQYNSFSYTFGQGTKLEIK
B8: C709 (antibody, V domains shown)
VH: QVQLVQSGAEVRKPGASVKVSCMASGYTFNTYDINWVRQGTGQGLEWMGWMNPNSGNTGHAQKFQGRVAMTVNTSMNTAYMELSSLRSEDTAVYYCARGADMLNVAVGADFDYWGQGTLVTVSS
VL: QSALTQPPSASGSPGQSVTISCTGTSSDVGGYNFVSWFQQHPGKAPKLMIYEVSKRPSGVPDRFSGSKSANTASLTVSGLQAEDEADYFCSSYAGSNNWVFGGGTKLTVL
B9: C054 (antibody, V domains shown)
VH: EVQLVESGGGLIQPGGSLRLSCAASGFTVSNNYMSWVRQAPGKGLEWVSVIYSGGSTYDADSVKGRFTISRDNSKNTLYLQMNSLSAEDTAVYYCAREGDVEGYYDFWSGYSRDRYYFDYWGQGTLVTVSS
VL: QSALTQPASVSGSPGQSITISCTGTSSDVGGYNYVSWYQQHPGKAPKLMIYDVSNRPSGVSNRFSGSKSGNTASLTISGLQAEDEADYYCSSYTSSSARVFGTGTKVTVL
B10: C052 (antibody, V domains shown)
VH: EVQLVESGGGLIRPGGSLRLSCAASGFSVSNNYMSWVRQAPGKGLEWVSVIYSGGTTYYADSVKGRFNISRDNSKNTVYLQMNSLRAEDTAVYYCAREGDVEGYYDFWSGYSRDRYYFDYWGQGALVTVSS
VL: QSALTQPASVSGSPGQSITISCTGTSSDVGGYNYVSWYQQHPGKAPKLMIYDVSNRPSGVSNRFSGSKSGNTASLTISGLQAEDEADYYCNSYTSNNTRVFGTGTKVTVL
B11: C144 (antibody, V domains shown)
VH: EVQLVESGGGLIQPGGSLRLSCAASGFTVSNNYMSWVRQAPGKGLEWVSVIYSGGSTYYADSVKGRFTISRDKSKNTLYLQMNRLRAEDTAVYYCAREGEVEGYNDFWSGYSRDRYYFDYWGQGTLVTVSS
VL: QSALTQPASVSGSPGQSITISCTGTSSDVGGYNYVSWYQQHPGKAPKLMIYDVSNRPSGVSNRFSGSKSGNTASLTISGLQAEDEADYYCSSYTSSSTRVFGTGTKVTVL
B12: C046 (antibody, V domains shown)
VH: EVQLVESGGGLAQPGRSLRLSCAASGFTFDDYAMHWVRQAPGKGLEWVSGINWNSGSLGYADSVKGRFTISRGIAKNSLYLQMNSLRPEDTAFYYCAKAGVRGIAAAGPDLNFDYWGQGTLVTVSS
VL: EIVLTQSPATLSLSPGERATLSCRASQSVSSYLAWYQQKPGQAPRLLIYDASNRATGIPARFIGSGSGTDFTLTISSLEPEDFAVYYCQQRITFGQGTRLEIK
B13: C703 (antibody, V domains shown)
VH: EVQLLESGGGLVQPGGSLRLSCAGSGFTFSHYALSWVRQAPGKGLEWVSCISGTGGNSHYADSVKGRFTSSRDNSKNILYLQMNSLRAEDTAVYFCAKGGDFWSGYLIPFDSWGQGTLVTVSS
VL: SYELTQSPSVSVAPGKTARITCGGDSIGSKNVHWYQQKPGQAPVLVMYYDNDRPSGIPERFSGYNSGNTATLSISRVEAGDEADYYCLVWDGSGDPWVFGGGTKLTVL
B14: C097 (antibody, V domains shown)
VH: QVQLQESGPGLVKPSQTLSLTCTVSGGSISSGPYYWSWIRQHPGKGLEWIGYIYYSGSTYYNPSLKSRVTISVDTSKKQFSLNLNSVTAADTAVYYCARVWQYYDSTGSFDYWGQGTLVTVSS
VL: DIVMTQSPLSLPVTPGEPASISCRSSRGLLHSNGYNYLDWYLQKPGQSPQLLIYLGSNRASGVPDRFSGSGSVTDFTLNISRVEAEDVGVYYCMQALQTPFTFGPGTKVDIK
B15: C707 (antibody, V domains shown)
VH: EVQLVESGGGLVKPGGSLRLSCAASGFTFSSYSMNWVRQAPGKGLAWVSSISSSNNIIYYADSVKGRFTISRDDAKDSLYLHMKSLRADDTAVYFCARVPSWAPYQLLPGPFDYWGQGILVTVSS
VL: IRMTQSPSSLSASVGDRVTITCQASQAIASYLSWYQHKPGRAPKLLIYDASNLEIGVPSRFSGSGSGTDFTFTISSLQSEDNATYYCQQYESLPGTFGGGTKVEIK
B16: C043 (antibody, V domains shown)
VH: QLVQSGPEVKKPGTSVKVSCKASGFTFYNSAVQWVRQARGQRLEWVGWIVVGSGNTDYAQKFQERVTMTRDLSTNTAYMEVNSLRSEDTAVYYCAAPYCSGGTCLDGFDIWGQGTMVTVSS
VL: EIVLTQSPGTLSLSPGERGTLSCRASQSVRSNYLAWYKQRPGQAPRLLVYGASSRATGIPDRFSGSGSGTDFTLTISRLEPEDFAVYYCQQYGSSPWTFGQGTKVEIK
B17: C047 (antibody, V domains shown)
VH: QVQLQESGPGLVKPSETLSLTCTVSGGSISSTTYYWDWIRQSPGKGLEWIGSIFYTGITYYSPSLKSRVTISVDTSKNQFSLRLNSMTAADTAVYYCARRLRQLWFGPWFDPWGQGTLVTVSS
VL: QSALTQPPSASGSPGQSVTISCTGTRSDVGDYNYVSWYQQHPDKAPKLIIYEVTKRPSGVPDRFSGSKSGNTASLTVSGLQAEDEADYYCSSYAGSNNVMFGGGTKLTVL
B18: C710 (antibody, V domains shown)
VH: QVQLQESGPGLVKPSETLSLTCIVSGGSINSTTYYWDWIRQSPGKGLEWIGSIFYTGITYYSPSLKTRVTISVDTSKNQFSLRLNSMTAADTAVYYCARRLRQLWFGPWFDPWGQGTLVTVSS
VL: QSALTQPPSASGSPGQSVTISCTGTRSDVGDYNYVSWYQQHPDKAPKLIIFEVTKRPSGVPDRFSGSKSGNTASLTVSGLQAEDEADYYCSSYAGSSNVMFGGGTKLTVL
B19: C708 (antibody, V domains shown)
VH: EVQLVESGGGLVQPGGSLRLSCAASGFSFSTYWMSWVRQAPGKGLEWVADIKQDGSEKYFVDSVKGRFTISRDNAKNSLYLHLNSLRAEDTAVYYCAREMAGSGNYYWFGYGMDVWGQGTTVTVSS
VL: IRMTQSPSSVSASVGDRVTITCRASQGISSWLAWYQQKPGKAPKLLIYAASSLQSGVPSRFSGSESGTDFTLTISSLQPEDFATYYCQQANSFPLTFGGGTKVEIK
B20: C096 (antibody, V domains shown)
VH: EVQLVESGGGLVKPGGSLRLSCVASGFTFRNAWMNWVRQAPGKGLEWVGRIKANSDGGTIDYAEPVQGRFTISREDSRNSLYLQMNSLKTEDTAVYYCTTGPQYDDFGHSYIVDSWGPGTLVTVSS
VL: DIVMTQSPLSLPVTLGEPASISCRSSQSLLHSNGFHFLEWYLQKPGQSPQLLIYVGSNRASGVPDRFSGSGSGTDFTLKISRVEAEDVGVYYCMQTLQTPLTFGGGTKVEIK
B21: C044 (antibody, V domains shown)
VH: EVQLVESGGGLVQPGGSLRLSCAASGFTFSSYSMNWVRQAPGKGLEWVSYISSSSSTIYYADSVKGRFTISRDNAKNSLYLQMNSLRDEDTAVYYCAREAHDGALTDYGDYLNWFDPWGQGTLVTVSS
VL: SYELTQPPSVSVAPGKTARITCGGNNIGSKSVHWYQQKPGQAPVLVIYYDSDRPSGIPERFSGSNSGNTATLTISRVEAGDEADYYCQVWDSSSDHLYWVFGGGTKLTVL
B22: C045 (antibody, V domains shown)
VH: EVQLVESGGGLVQPGGSLRLSCAASGFTFSTYSMNWVRQAPGKGLEWVSYISSSSSTIHYADSVKGRFTISRDNAKNSLYLQMNSLRDEDTAVYYCAREAHDGALTDYGDYLNWFDPWGQGTLVTVSS
VL: SYELTQPPSVSVAPGKTARITCGGTNIGSKNVHWYQQKPGQAPVLVIYYDNDRPSGIPERFSGSNSGNTATLTISRVEAGDEADYYCQVWDTTSDHFYWVFGGGTKLTVL

As a reminder, the EC50 is the concentration giving half of the maximal effect. The low end stands for a more potent agent, the high end for a less potent agent.

In the test the target is SARS-CoV-2 spike receptor binding domain (RBD), wild type (SARS-CoV-2, UniProt P0DTC2 319-539). The test is described as follows: ELISA on coated RBD protein. (In general: In an ELISA, binding on a coated surface is turned into a signal by an enzyme label.)
B1 came in with an EC50 of 1.1 ng/mL. The same measure for B2: 4.09 ng/mL. The same measure for B3: 7.7 ng/mL; for B4: 2.45 ng/mL; for B5: 73.5 ng/mL. The same measure for B6: 13.4 ng/mL; for B7: 4.8 ng/mL; for B8: 7.56 ng/mL.

In the case of B9, the EC50 was 1.58 ng/mL. Molecule B10 gave an EC50 of 1.23 ng/mL. The same measure for B11: 1.83 ng/mL. The same measure for B12: 4.02 ng/mL. The same measure for B13: 10.9 ng/mL.

B14 displayed an EC50 of 3.45 ng/mL. Molecule B15 returned a concentration for a half-maximal effect (EC50) of 26 ng/mL.

As for B16, the midpoint of the response, the EC50, lay at 12.1 ng/mL. The same measure for B17: 11.1 ng/mL; for B18: 17.8 ng/mL; for B19: 130 ng/mL. The molecule B20 came in with an EC50 of 5.18 ng/mL.

The molecule B21 displayed an EC50 of 1820 ng/mL. As for B22, the EC50 stood at 7 ng/mL.

The values are drawn from patent US20220195015A1 (published 2022).
